According to patent US20210228853A1, “DRUG DELIVERY METHODS TARGETING THE LYMPHATIC SYSTEM” (Sorrento Therapeutics, Inc., priority 2018, published 2021):

Experiments:
[1] = test system: Collagen Induced Arthritic (CIA) Model for Rheumatoid Arthritis (RA); assay: Lymphatic pumping rate by NIRF imaging in CIA rats; format: in vivo, rat; details: for lymphatic pumping in the hind limbs vs untreated animals: CIA rat, days 13 and 18 post CIA induction
Protocol: Specifically, type II porcine collagen (Chondrex, Inc. catalog #20031), solubilized in 0.05 N of acetic acid in sterile water at a concentration of 2 mg/mL was emulsified with an equal volume of incomplete Freud's adjuvant (Chondrex, Inc. catalog #7002) using homogenization at 35,000 rpm (Omni International homogenizer TH, homogenizer probe #32750); 100 μL emulsion was injected subcutaneously at the base of the tails on both sides for initial administration (day 0, 200 μL of emulsion total), and then again, 7 days later, on the right side only, for booster administration (day 7, 100 μL of emulsion total). Hind limb swelling, usually evident by day 14, was assessed by caliper measurements of the rear ankle cross (side-to-side) and oblique (front-to-back) dimensions. The two measurements for each hind limb were multiplied together for assessment of swelling, and the percent change from baseline was computed. These measurements and lymphatic imaging were performed on days 0, 7, 11, 13, and 18, in the early stages of CIA before the onset of joint destruction. Four groups of animals were studied: (1) untreated (n=20), (2) treated with etanercept given by SC administration (n=20, 1 mg in 100 μL), (3) treated with etanercept given by ID administration (n=20, two administrations of 0.5 mg in 50 μL), and (4) treated with etanercept given via Sofusa™ (n=18, one administration of 1 mg in 100 μL delivered). Rats were anesthetized with isoflurane and shaved before imaging; 10 μL of 625 μM ICG was then injected ID with a 31-gauge needle/syringe (BD #328438, Fisher Scientific) at the base of the tail and on the dorsal side of the paw on both the right and left sides of the rats to perform NIRF imaging of the lymphatics. […] The integration time for fluorescence images was 200 ms; 300-900 images were collected per lateral side per rat for lymph propulsive frequency measurements. […]

[2] = test system: Collagen Induced Arthritic (CIA) Model for Rheumatoid Arthritis (RA); assay: Collagen induced arthritic (CIA) model for rheumatoid arthritis, hind limb/joint swelling; format: in vivo, rat
Protocol: Specifically, type II porcine collagen (Chondrex, Inc. catalog #20031), solubilized in 0.05 N of acetic acid in sterile water at a concentration of 2 mg/mL was emulsified with an equal volume of incomplete Freud's adjuvant (Chondrex, Inc. catalog #7002) using homogenization at 35,000 rpm (Omni International homogenizer TH, homogenizer probe #32750); 100 μL emulsion was injected subcutaneously at the base of the tails on both sides for initial administration (day 0, 200 μL of emulsion total), and then again, 7 days later, on the right side only, for booster administration (day 7, 100 μL of emulsion total). Hind limb swelling, usually evident by day 14, was assessed by caliper measurements of the rear ankle cross (side-to-side) and oblique (front-to-back) dimensions. The two measurements for each hind limb were multiplied together for assessment of swelling, and the percent change from baseline was computed. These measurements and lymphatic imaging were performed on days 0, 7, 11, 13, and 18, in the early stages of CIA before the onset of joint destruction. Four groups of animals were studied: (1) untreated (n=20), (2) treated with etanercept given by SC administration (n=20, 1 mg in 100 μL), (3) treated with etanercept given by ID administration (n=20, two administrations of 0.5 mg in 50 μL), and (4) treated with etanercept given via Sofusa™ (n=18, one administration of 1 mg in 100 μL delivered).

[3] = Etanercept pharmacokinetics in rat serum by route of administration (ELISA); format: in vivo, Sprague Dawley rats
Protocol: Methods and procedures for some of these experiments have been adapted from Aldrich, et al., Arthritis Res. Ther., (2017), 19:116 (DOI 10.1186/s13075-017-1323-z; Open Access) which is incorporated by reference herein in its entirety for all purposes.
In order to characterize differences in etanercept delivery by the different routes of administration, normal rats were used to determine the PK profiles following a single dose of 1 mg etanercept in 100 μL delivered via Sofusa™ (n=6), conventional IV (in the tail vein, n=6), SC (dorsolateral injection at the same site as the Sofusa™ application, n=4), or ID injections (symmetrical dorsolateral injections 2×50 uL for a total dose of 1 mg etanercept, n=6). Other than the Sofusa™ delivery, all administration was conducted using a 31-gauge needle. At 2, 4, 8, 12, 24, and 36 h after administration, animals were anesthetized under isoflurane, and 200 μL of blood was drawn from the jugular vein. The etanercept concentration in serum was quantified using the Etanercept ELISA Kit (ABIN: 1540251) (Matriks Biotechnology Co., LTD., Ankara, Turkey). Optical density was measured at 450 nm using Thermo Scientific Multiskan EX (Thermo Fisher Scientific, Waltham, Mass., USA).

[4] = Etanercept pharmacokinetics in porcine model by route of administration; format: in vivo, Yorkshire pig
[5] = Biodistribution of radiolabeled etanercept to axillary and inguinal lymph nodes; format: in vivo; details: rat; Sofusa vs intravenous or subcutaneous; 12 and 36 hours; 1 mg
Protocol: In order to determine the amount etanercept delivered to the lymph nodes, a radiolabeled etanercept solution was administrated using the Sofusa™ drug delivery platform (1 mg etanercept in 100 μL), IV (1 mg etanercept in the tail vein in 100 μL), SC (1 mg etanercept in the dorsolateral side at the same site as the Sofusa™ application, 100 μL), and ID (1 mg total etanercept in two 50 μL injections). Animals were harvested at 12 and 36 hrs after administration, and the left/right axillary and inguinal lymph nodes were collected, weighed, and counted for radioactivity using a 2480 Wizard2 automatic gamma counter (PerkinElmer, Waltham, Mass., USA). The time-corrected radioactivity was then used to compute the μg/mL of tissue etanercept concentration from the specific radioactivity of the dosing solution with animals that were euthanized at 12 hrs (n=4, Sofusa™; n=6, IV; n=6, ID; and n=6, SC) and at 36 hrs (n=6, Sofusa™; n=6, IV; n=6, ID; and n=6, SC).
In order to validate the amount of etanercept delivered, the radioactivity was measured in the Sofusa™ device and tubing before and after the 1 hr infusion. Measurement was conducted using the dose calibrator. The amount of etanercept delivered as the difference in the time-corrected radioactivity before and after administration was determined.

[6] = Sofusa drug delivery platform vs subcutaneous
[7] = Table 1, IV, 1 mg etanercept single dose
[8] = Table 1, SC, 1 mg etanercept single dose
[9] = Table 2 summary, Sofusa drug delivery platform

## etanercept
[1]; CIA RA rat, Sofusa compared to untreated, ID and SC groups
  lymphatic pumping rate: significantly increased
[1]; SC administration
  lymphatic pumping in the hind limbs vs untreated animals: statistically significant greater lymphatic pumping
[1]; SOFUSA administration
  lymphatic pumping in the hind limbs vs untreated animals: statistically significant greater lymphatic pumping
[2]; CIA RA rat model, Sofusa administration, 1 mg
  joint swelling over time: decreased joint swelling over time
[2]; CIA rat, ID administration
  increase in swelling with progression of disease (paired group comparisons, ANOVA): swelling was significantly increased
[2]; CIA rat, SC administration
  increase in swelling with progression of disease (paired group comparisons, ANOVA): swelling was significantly increased
[2]; CIA rat, SOFUSA administration
  increase in swelling with progression of disease (paired group comparisons, ANOVA): no statistically significant increase in swelling
[2]; CIA rat, all treated groups (SC, ID, Sofusa), days 13 and 18
  swelling of the hind limbs vs untreated animals: significant reduction in swelling
[2]; CIA rat, days 13 and 18
  hind limb swelling, SOFUSA compared to SC-treated animals: significantly reduced hind limb swelling
[3]; [6]
  AUC48, Sofusa compared to SC: almost double
  Tmax, Sofusa compared to SC: significantly shorter
[3]; [7]
  AUC0-48: 2,800 hrs-μg/mL
  BA: 100%
  Cmax: 120000 ng/mL
  Tmax: 8 h
[3]; [8]
  AUC0-48: 302 hrs-μg/mL
  BA: 10%
  Cmax: 15000 ng/mL
  Tmax: 36 h
[3]; Table 1, Sofusa Study 1
  AUC0-48: 545 hrs-μg/mL
  BA: 20%
  Cmax: 25000 ng/mL
  Tmax: 4 h
[3]; Table 1, Sofusa Study 2
  AUC0-48: 502 hrs-μg/mL
  BA: 18%
  Cmax: 22000 ng/mL
  Tmax: 2 h
[3]; Table 1, Sofusa Study 3
  AUC0-48: 538 hrs-μg/mL
  BA: 19%
  Cmax: 20000 ng/mL
  Tmax: 2 h
[3]; Table 2 summary, SC
  AUC0-48: 492 hrs-μg/mL
  BA: 17%
  Cmax: 15000 ng/mL
  Tmax: 36 h
[3]; [9]
  AUC0-48: 800 hrs-μg/mL
  BA: 29%
  Cmax: 19000 ng/mL
  Tmax: 10 h
[3]; Table 3, Intradermal
  AUC0-36: 696 µg·h/mL
  BA: 25%
  Cmax: 21000 ng/mL
  Tmax: 12 h
[3]; Table 3, Intravenous
  AUC0-36: 2,815 μg-hour/ml
  BA: 100%
  Cmax: 120000 ng/mL
  Tmax: 2 h
[3]; Table 3, Sofusa
  AUC0-36: 1010 µg·h/mL
  BA: 36%
  Cmax: 23000 ng/mL
  Tmax: 12 h
[3]; Table 3, Subcutaneous
  AUC0-36: 302 µg·h/mL
  BA: 11%
  Cmax: 15000 ng/mL
  Tmax: 36 h
[4]
  AUC48 and bioavailability, Sofusa vs intravenous: comparable to that for intravenous administration
  AUC48 and bioavailability, Sofusa vs subcutaneous: significantly higher than that for subcutaneous delivery
[4]; Sofusa at a dose much lower than subcutaneous administration
  serum concentration: maintained a serum concentration at a therapeutically effective concentration
[4]; Table 4, IV
  AUC0-48: 143 hrs-μg/mL
  BA: 100%
  Cmax: 6000 ng/mL
  Tmax: 2 h
[4]; Table 4, SC
  AUC0-48: 89 hrs-μg/mL
  BA: 62%
  Cmax: 2000 ng/mL
  Tmax: 24 h
[4]; Table 4, Sofusa
  AUC0-48: 132 hrs-μg/mL
  BA: 93%
  Cmax: 4400 ng/mL
  Tmax: 24 h
[5]
  active agent in the axillary and inguinal lymph nodes: significantly more of the active agent
